B1: Glyceraldehyde 3-phosphate-dehydrogenase (GAPDH), endogenous protein of rat hippocampus (enzyme)
chain: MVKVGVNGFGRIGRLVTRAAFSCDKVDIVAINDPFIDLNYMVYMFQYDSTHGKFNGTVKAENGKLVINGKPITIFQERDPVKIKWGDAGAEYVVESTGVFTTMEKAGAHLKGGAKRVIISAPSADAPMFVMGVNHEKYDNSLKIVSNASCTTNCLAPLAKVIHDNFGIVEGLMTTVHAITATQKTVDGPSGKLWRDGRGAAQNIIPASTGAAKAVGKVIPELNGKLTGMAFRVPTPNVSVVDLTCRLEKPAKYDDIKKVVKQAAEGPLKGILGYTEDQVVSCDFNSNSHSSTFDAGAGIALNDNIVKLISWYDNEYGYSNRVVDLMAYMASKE
notes: Native protein in rat hippocampal extracts, primary rat hippocampal neurons and rat brain
B2: p53, endogenous protein of rat hippocampus (other, UniProt P10361 1-391, looked up)
chain: MEDSQSDMSIELPLSQETFSCLWKLLPPDDILPTTATGSPNSMEDLFLPQDVAELLEGPEEALQVSAPAAQEPGTEAPAPVAPASATPWPLSSSVPSQKTYQGNYGFHLGFLQSGTAKSVMCTYSISLNKLFCQLAKTCPVQLWVTSTPPPGTRVRAMAIYKKSQHMTEVVRRCPHHERCSDGDGLAPPQHLIRVEGNPYAEYLDDRQTFRHSVVVPYEPPEVGSDYTTIHYKYMCNSSCMGGMNRRPILTIITLEDSSGNLLGRDSFEVRVCACPGRDRRTEEENFRKKEEHCPELPPGSAKRALPTSTSSSPQQKKKPLDGEYFTLKIRGRERFEMFRELNEALELKDARAAEESGDSRAHSSYPKTKKGQSTSRHKKPMIKKVGPDSD
B3: GST-GluR2 NTc (L422-E545) (other, UniProt P19491 422-545, looked up)
chain: LESPYVMMKKNHEMLEGNERYEGYCVDLAAEIAKHCGFKYKLTIVGDGKYGARDADTKIWNGMVGELVYGKADIAIAPLTITLVREEVIDFSKPFMSLGISIMIKKPQKSKPGVFSFLDPLAYE
notes: range 422-545; also called GST-GluR2NT3; GluR2NT3; not shown: glutathione S-transferase (GST) encoded by vector pGEX-4T3
B4: GST-GluR2 NTa1 (V22-F71) (other, UniProt P19491 22-71, looked up)
chain: VSSNSIQIGGLFPRGADQEYSAFRVGMVQFSTSEFRLTPHIDNLEVANSF
notes: range 22-71; also called GluR2NT1-1; not shown: glutathione S-transferase (GST) encoded by vector pGEX-4T3
B5: GST-GluR2 NTb (K272-I421) (other, UniProt P19491 272-421, looked up)
chain: KFIERWSTLEEKEYPGAHTATIKYTSALTYDAVQVMTEAFRNLRKQRIEISRRGNAGDCLANPAVPWGQGVEIERALKQVQVEGLSGNIKFDQNGKRINYTINIMELKTNGPRKIGYWSEVDKMVVTLTELPSGNDTSGLENKTVVVTTI
notes: range 272-421; also called GST-GluR2NT2; GluR2NT2; not shown: glutathione S-transferase (GST) encoded by vector pGEX-4T3
B6: GST-GluR2 NTa4 (K172-D221) (other, UniProt P19491 172-221, looked up)
chain: KWQVTAINVGNINNDKKDETYRSLFQDLELKKERRVILDCERDKVNDIVD
notes: range 172-221; also called GluR2NT1-4; not shown: glutathione S-transferase (GST) encoded by vector pGEX-4T3
B7: GST-GluR2 NTa5 (Q222-S271) (other, UniProt P19491 222-271, looked up)
chain: QVITIGKHVKGYHYIIANLGFTDGDLLKIQFGGANVSGFQIVDYDDSLVS
notes: range 222-271; also called GluR2NT1-5; not shown: glutathione S-transferase (GST) encoded by vector pGEX-4T3
B8: GST-GluR2 NTa2 (A72-T121) (other, UniProt P19491 72-121, looked up)
chain: AVTNAFCSQFSRGVYAIFGFYDKKSVNTITSFCGTLHVSFITPSFPTDGT
notes: range 72-121; also called GluR2NT1-2; not shown: glutathione S-transferase (GST) encoded by vector pGEX-4T3

Columns and labels:
[1] = molecular target: B3; experiment: repeated GST pull-down from rat hippocampal tissue
[2] = molecular target: B5; experiment: repeated GST pull-down from rat hippocampal tissue
GST-GluR1NT (A19-E538) = molecular target: T1, GST-GluR1NT (A19-E538) (UniProt P19490 19-538); experiment: GST pull-down from rat hippocampal extracts, Coomassie-stained SDS-PAGE
T1 construct: range 19-538; Control fusion protein; not shown: glutathione S-transferase (GST) encoded by vector pGEX-4T3

GST alone = molecular target: T2, GST alone (UniProt P08515 1-218 = GST); experiment: GST pull-down, Western blot for GAPDH
T2 construct: Negative control; also called GST peptide
T2 sequence (P08515 whole entry): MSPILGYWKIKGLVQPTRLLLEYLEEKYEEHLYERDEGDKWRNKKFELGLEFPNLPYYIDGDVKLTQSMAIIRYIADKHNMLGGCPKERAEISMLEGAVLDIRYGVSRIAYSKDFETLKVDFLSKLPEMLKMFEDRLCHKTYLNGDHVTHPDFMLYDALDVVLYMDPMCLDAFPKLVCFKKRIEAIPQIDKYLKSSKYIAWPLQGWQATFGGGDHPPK

GST-GluR2NT (V22-E545) = molecular target: T3, GST-GluR2NT (V22-E545) (Rattus norvegicus (Rat), UniProt P19491 22-545); experiment: GST pull-down, Western blot for p53 (FIG. 24A)
T3 construct: Bacterial GST fusion on glutathione-Sepharose; not shown: glutathione S-transferase (GST) encoded by vector pGEX-4T3

[3] = molecular target: T4, [35S]-GAPDH probe (in vitro translated, [35S]-methionine labelled GAPDH) (Homo sapiens, UniProt P04406 1-335, limits assumed, [35S]-methionine labelled); experiment: repeated in vitro binding assay with in vitro translated probe
T4 sequence (P04406 whole entry): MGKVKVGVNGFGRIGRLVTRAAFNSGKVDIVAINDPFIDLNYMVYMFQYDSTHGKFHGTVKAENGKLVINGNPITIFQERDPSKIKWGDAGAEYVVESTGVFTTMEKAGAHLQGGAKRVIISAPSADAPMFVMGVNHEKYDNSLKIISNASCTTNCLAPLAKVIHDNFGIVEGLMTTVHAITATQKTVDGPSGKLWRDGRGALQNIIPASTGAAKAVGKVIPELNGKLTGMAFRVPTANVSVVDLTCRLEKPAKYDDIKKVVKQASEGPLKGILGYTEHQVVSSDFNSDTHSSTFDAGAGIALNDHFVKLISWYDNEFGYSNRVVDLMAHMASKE

[4] = molecular target: T4, [35S]-GAPDH probe (in vitro translated, …); experiment: blot overlay with in vitro translated probe
[5] = molecular target: B1; experiment: repeated GST pull-down from rat hippocampal tissue
[6] = molecular target: B1; experiment: GST pull-down, Western blot for GAPDH

B1
binding result [1]: no binding
binding result [2]: no binding
binding result (GST-GluR1NT (A19-E538)): no binding
binding result (GST alone): no binding

B2
binding result (GST-GluR2NT (V22-E545)): no binding

B3
binding result [3]: no binding

B4
binding result [4]: no binding
binding result [5]: no binding

B5
binding result [3]: no binding

B6
binding result [4]: no binding
binding result [6]: no binding

B7
binding result [4]: no binding
binding result [6]: no binding

B8
binding result [4]: no binding
binding result [6]: no binding

— patent US20130336951A1 (CENTRE FOR ADDICTION AND MENTAL HEALTH, published 2013)
